In article PMC7422940 (Journal of bone and mineral research : the official journal …, 2019):

Molecular target: T1, His-tagged full-length ATF4 (mouse, UniProt Q06507 1-349)
T1 sequence (looked up): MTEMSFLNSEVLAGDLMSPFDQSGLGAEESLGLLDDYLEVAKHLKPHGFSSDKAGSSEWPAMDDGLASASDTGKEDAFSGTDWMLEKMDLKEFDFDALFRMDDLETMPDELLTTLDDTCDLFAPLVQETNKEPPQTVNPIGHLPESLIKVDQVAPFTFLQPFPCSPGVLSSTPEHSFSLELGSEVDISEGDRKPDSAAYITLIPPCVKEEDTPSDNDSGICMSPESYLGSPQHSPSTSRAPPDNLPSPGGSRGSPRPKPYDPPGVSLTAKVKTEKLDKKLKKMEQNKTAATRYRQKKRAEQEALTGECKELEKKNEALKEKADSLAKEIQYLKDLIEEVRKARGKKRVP
Assay: pull-down

B1: GST-Hop2^81−147 (domain or fragment, mouse, UniProt O35047 81-147, looked up)
chain: VSDADLHGLDASIVALTAKVQSLQQSCRHMEAELKELTSALTTPEMQKEIQELKKECAQYTERLKNI
  binding result: binds
